Measurements: publication PMC6973313 (mAbs, 2020)

Biological target: T1, Mouse GIPR extracellular domain (residues 19 to 134) (mouse, UniProt Q0P543 19-134)
T1 sequence: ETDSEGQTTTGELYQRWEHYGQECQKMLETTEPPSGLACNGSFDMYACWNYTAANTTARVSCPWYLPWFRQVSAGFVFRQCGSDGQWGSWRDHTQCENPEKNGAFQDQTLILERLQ
Assay: crystal structure

B1: Fab of mAb1 (Fab1) (Fab, V domains shown)
VH: DVQLVESGGGLVQPGGSRKLSCAASGFTFSSFGMHWVRQAPEKGLEWVAYISSGSSTIYYADTVKGRFTISRDNPKNTLFLQMTSLRSEDTAMYYCARGKYPTWIAYWGQGTLVTVSA
VL: DIVMTQSPSSLTVTAGEKVTMSCKSSQSLLNSGNQKNYLTWYQQKPGQPPKLLISWASTRDSGVPDRFTGSGSGTDFTLTISSVQAEDLAVYYCQNDYSYPLTFGAGTKLELKR
- binding result: binds
